The text below walks through data of patent US20200338049A1, “AGENT FOR TREATING FABRY DISEASE, ANALGESIC FOR EXTERNAL USE AND PERSPIRATION ACCELERATOR” (OSAKA UNIVERSITY, priority 2016, published 2020).

One assay relates to p-mTOR. Briefly: p-mTOR staining of angiokeratoma of Fabry disease patient before and after ERT. The settings on record: p-mTOR fluorescent staining. Format: in vivo, human. From the text: (§1) The activation state of mTOR in an angiokeratoma of a Fabry disease patient, and the effects of ERT (conventional treatment method to treat Fabry disease) on an angiokeratoma, were checked. An enzyme used in ERT of this test was agalsidase beta, and specific processes of the treatment method were based on usual dosages.
A piece of the skin of a Fabry disease patient including an angiokeratoma lesion was stained with an anti-p-mTOR antibody, and the activation state of mTOR was checked.

In assay [1] the test system is angiokeratoma of Fabry disease patient. Briefly: Course of angiokeratomas of Fabry disease patient receiving ERT. The note with it: ERT over eight years. Format: in vivo, human.
Text: as §1

The test system of assay [2] is dorsal root ganglion cells (DRG cells). The assay can be described thus: Axon extension of cultured dorsal root ganglion cells. Format: cell-based. The note with it: DRG cells of 20-week-old wild-type mouse. The method, then: Dorsal root ganglion cells (DRG cells) were taken from a 20-week-old wild-type mouse. The dorsal root ganglion nerve cells thus taken were first subjected to extraction with Ham's 12 containing 30% Percoll, and then were cultured at 37° C. for 2 days with the use of a Gibco Neurobasal-A medium (manufactured by Gibco) supplemented with 2 mM GlutaMaxl, 2% B-27 w/o Vitamin A, 5 ng/mL recombinant BDNF carrier free, and 10 ng/mL recombinant human-beta NGF carrier free. Then, the culture medium was replaced with a medium supplemented with 2 mM GlutaMaxl, 2% B-27 w/o Vitamin A, 10 μM Retinoic Acidn, and 100 ng/mL recombinant human-beta NGF carrier free, and then a comparative observation of the extension of axons was carried out with a microscope (BZ-X710, manufactured by KEYENCE), and microscope images were taken.

B1: agalsidase beta (protein, UniProt P06280 32-429, looked up)
Alpha-galactosidase A: LDNGLARTPTMGWLHWERFMCNLDCQEEPDSCISEKLFMEMAELMVSEGWKDAGYEYLCIDDCWMAPQRDSEGRLQADPQRFPHGIRQLANYVHSKGLKLGIYADVGNKTCAGFPGSFGYYDIDAQTFADWGVDLLKFDGCYCDSLENLADGYKHMSLALNRTGRSIVYSCEWPLYMWPFQKPNYTEIRQYCNHWRNFADIDDSWKSIKSILDWTSFNQERIVDVAGPGGWNDPDMLVIGNFGLSWNQQVTQMALWAIMAAPLFMSNDLRHISPQAKALLQDKDVIAINQDPLGKQGYQLRQGDNFEVWERPLSGLAWAVAMINRQEIGGPRSYTIAVASLGKGVACNPACFITQLLPVKRKLGFYEWTSRLRSHINPTGTVLLQLENTMQMSLKDLL
modifications: agalsidase beta
notes: enzyme replacement therapy; enzyme used was agalsidase beta, usual dosages
B1: the “mTOR activity in angiokeratoma after ERT” value in the assay with p-mTOR is “mTOR is also active”. Further, the effect on angiokeratomas result in assay [1] is listed as “not effective in treating angiokeratomas”.

B2: BDNF: recombinant BDNF carrier free, brain-derived neurotrophic factor (protein, UniProt P23560 19-247, looked up)
Neurotrophic factor BDNF …: APMKEANIRGQGGLAYPGVRTHGTLESVNGPKAGSRGLTSLADTFEHVIEELLDEDQKVRPNEENNKDADLYTSRVMLSSQVPLEPPLLFLLEEYKNYLDAANMSMRVRRHSDPARRGELSVCDSISEWVTAADKKTAVDMSGGTVTVLEKVPVSKGQLKQYFYETKCNPMGYTKEGCRGIDKRHWNSQCRTTQSYVRALTMDSKKRIGWRFIRIDTSCVCTLTIKRGR
For B2, the extension of axons entry in assay [2] is reported as “axons were found to have extended”.
